Experimental data taken from patent US20210138031A1 (TRUSTEES OF TUFTS COLLEGE, published 2021).
Each block holds one molecule with its values, some of them ahead of it.

Key:
C9 = C9 (UniProt P02748 22-559); assay: cell-based or functional assay
C3b = C3b (human, UniProt P01024 749-1663; P01024 23-667); assay: cell-based or functional assay
C3b, sequence (P01024 749-1663 limits assumed, chain 1 of 2): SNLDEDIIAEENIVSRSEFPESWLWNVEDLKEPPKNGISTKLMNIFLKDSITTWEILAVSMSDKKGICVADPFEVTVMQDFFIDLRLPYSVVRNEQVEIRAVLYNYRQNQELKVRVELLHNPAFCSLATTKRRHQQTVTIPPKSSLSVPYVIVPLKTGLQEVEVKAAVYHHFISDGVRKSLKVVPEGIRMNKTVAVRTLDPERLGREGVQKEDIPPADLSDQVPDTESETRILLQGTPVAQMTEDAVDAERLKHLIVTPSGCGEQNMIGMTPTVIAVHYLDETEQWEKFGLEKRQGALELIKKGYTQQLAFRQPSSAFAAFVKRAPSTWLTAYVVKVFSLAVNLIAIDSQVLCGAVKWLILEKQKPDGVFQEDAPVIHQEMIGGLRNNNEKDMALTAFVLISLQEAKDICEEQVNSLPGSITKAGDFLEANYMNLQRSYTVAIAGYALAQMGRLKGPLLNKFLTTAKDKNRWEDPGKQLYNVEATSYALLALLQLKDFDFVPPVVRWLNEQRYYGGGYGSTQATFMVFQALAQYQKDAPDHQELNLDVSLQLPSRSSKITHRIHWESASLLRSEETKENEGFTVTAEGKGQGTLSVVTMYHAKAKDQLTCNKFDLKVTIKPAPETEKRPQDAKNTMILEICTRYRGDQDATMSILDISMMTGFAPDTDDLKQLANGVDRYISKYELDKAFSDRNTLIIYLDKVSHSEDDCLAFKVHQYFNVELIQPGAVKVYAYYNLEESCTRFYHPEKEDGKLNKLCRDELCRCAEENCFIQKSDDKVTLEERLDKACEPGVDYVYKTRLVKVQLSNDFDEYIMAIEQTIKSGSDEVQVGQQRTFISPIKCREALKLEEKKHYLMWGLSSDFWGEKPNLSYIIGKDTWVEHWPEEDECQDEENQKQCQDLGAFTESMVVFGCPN
C3b, sequence (P01024 23-667 limits assumed, chain 2 of 2): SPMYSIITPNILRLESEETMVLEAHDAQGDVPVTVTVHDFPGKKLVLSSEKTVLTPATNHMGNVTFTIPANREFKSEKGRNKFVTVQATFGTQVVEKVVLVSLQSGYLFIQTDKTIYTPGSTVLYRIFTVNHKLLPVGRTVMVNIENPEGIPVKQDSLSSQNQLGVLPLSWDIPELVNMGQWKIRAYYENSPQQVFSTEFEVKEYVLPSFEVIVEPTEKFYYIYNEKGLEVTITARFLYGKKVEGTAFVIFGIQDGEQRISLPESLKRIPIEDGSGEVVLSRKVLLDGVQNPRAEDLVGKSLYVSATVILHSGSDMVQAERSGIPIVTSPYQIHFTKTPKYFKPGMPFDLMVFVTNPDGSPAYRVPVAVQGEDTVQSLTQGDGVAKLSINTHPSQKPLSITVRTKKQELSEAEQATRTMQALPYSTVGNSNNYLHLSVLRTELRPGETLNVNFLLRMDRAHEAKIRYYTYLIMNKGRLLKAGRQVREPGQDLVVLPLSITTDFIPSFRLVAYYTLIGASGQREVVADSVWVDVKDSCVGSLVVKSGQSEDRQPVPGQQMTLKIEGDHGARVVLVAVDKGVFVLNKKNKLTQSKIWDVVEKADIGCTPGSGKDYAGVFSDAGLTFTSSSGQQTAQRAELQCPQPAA

C9, sequence (P02748 22-559 limits assumed): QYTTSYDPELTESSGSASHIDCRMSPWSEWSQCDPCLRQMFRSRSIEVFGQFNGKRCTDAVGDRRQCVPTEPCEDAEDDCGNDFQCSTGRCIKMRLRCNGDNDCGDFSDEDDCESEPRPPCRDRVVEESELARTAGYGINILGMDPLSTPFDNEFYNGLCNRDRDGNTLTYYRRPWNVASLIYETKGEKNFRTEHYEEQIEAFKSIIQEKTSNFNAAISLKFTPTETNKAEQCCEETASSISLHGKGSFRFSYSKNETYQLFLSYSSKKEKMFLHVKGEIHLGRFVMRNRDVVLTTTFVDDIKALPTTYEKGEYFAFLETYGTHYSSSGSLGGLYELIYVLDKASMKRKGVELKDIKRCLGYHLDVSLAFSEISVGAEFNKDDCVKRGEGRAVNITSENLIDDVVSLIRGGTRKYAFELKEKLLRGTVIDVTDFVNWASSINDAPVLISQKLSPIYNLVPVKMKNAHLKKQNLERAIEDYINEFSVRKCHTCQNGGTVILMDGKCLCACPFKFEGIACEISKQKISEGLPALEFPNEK

reduction in lysis of sheep erythrocytes carrying C5b-8 after addition of C9, compared to GFP media containing C9 (C9): 21%
Molecule: sCD59 (soluble CD59, positive control) (from UniProt P13987 26-102)

reduction of release of hemoglobin from sheep erythrocytes carrying C5b-8 after addition of C9, relative to media from pGFP-transfected cells (C9): 29.9%
B1: Soluble Active Complement Terminator (SACT) (other)
chain: GCEEPPTFEAMELIGKPKPYYEIGERVDYKCKKGYFYIPPLATHTICDRNHTWLPVSDDACYRETCPYIRDPLNGQAVPANGTYEFGYQMHFICNEGYYLIGEEILYCELKGSVAIWSGKPPICEKVLCTPPPKIKNGKHTFSEVEVFEYLDAVTYSCDPAPGPDPFSLIGESTIYCGDNSVWSRAAPECKVVKCRFPVVENGKQISGFGKKFYYKATVMFECDKGFYLDGSDTIVCDSNSTWDPPVPKCLKVGGGGGGDCGLPPDVPNAQPALEGRTSFPEDTVITYKCEESFVKIPGEKDSVICLKGSQWSDIEEFCNRSCEVPTRLNSASLKQPYITQNYFPVGTVVEYECRPGYRREPSLSPKLTCLQNLKWSTAVEFCKKKSCPNPGEIRNGQIDVPGGILFGATISFSCNTGYKLFGSTSSFCLISGSSVQWSDPLPECREIYCPAPPQIDNGIIQGERDHYGYRQSVTYACNKGFTMIGEHSIYCTVNNDEGEWSGPPPECRGKSLTSKVPPTVQKPTTVNVPTTEVSPTSQKTTTKTTTPNAQATRSTPVSRTTKHFHETTPNKGSGTTSGTTGGGGGLQCYNCPNPTADCKTAVNCSSDFDACLITKAGLQVYNKCWKFEHCNFNDVTTRLRENELTYYCCKKDLCNFNEQLE
modifications: N- and O-linked glycosylation (about 110 kDa band observed)

reduction of release of hemoglobin from sheep erythrocytes carrying C5b-8 after addition of C9, relative to media from pGFP-transfected cells (C9): 34.8%
B2: Dual Terminator of Active Complement (DTAC) (other)
chain: GGDCGLPPDVPNAQPALEGRTSFPEDTVITYKCEESFVKIPGEKDSVICLKGSQWSDIEEFCNRSCEVPTRLNSASLKQPYITQNYFPVGTVVEYECRPGYRREPSLSPKLTCLQNLKWSTAVEFCKKKSCPNPGEIRNGQIDVPGGILFGATISFSCNTGYKLFGSTSSFCLISGSSVQWSDPLPECREIYCPAPPQIDNGIIQGERDHYGYRQSVTYACNKGFTMIGEHSIYCTVNNDEGEWSGPPPECRGKSLTSKVPPTVQKPTTVNVPTTEVSPTSQKTTTKTTTPNAQATRSTPVSRTTKHFHETTPNKGSGTTSGTTGGGGGLQCYNCPNPTADCKTAVNCSSDFDACLITKAGLQVYNKCWKFEHCNFNDVTTRLRENELTYYCCKKDLCNFNEQLE
modifications: glycosylated (about 76 kDa band observed)

reduction in C3b α′ chain signal intensity in the presence of Factor I, relative to media from pGFP transfected cells (quantitative western blot) (C3b): 34.3%
B3: soluble terminator of activated complement (STAC) (other)
chain: LQCYNCPNPTADCKTAVNCSSDFDACLITKAGLQVYNKCWKFEHCNFNDVTTRLRENELTYYCCKKDLCNFNEQLEGGGGGCEEPPTFEAMELIGKPKPYYEIGERVDYKCKKGYFYIPPLATHTICDRNHTWLPVSDDACYRETCPYIRDPLNGQAVPANGTYEFGYQMHFICNEGYYLIGEEILYCELKGSVAIWSGKPPICEKVLCTPPPKIKNGKHTFSEVEVFEYLDAVTYSCDPAPGPDPFSLIGESTIYCGDNSVWSRAAPECKVVKCRFPVVENGKQISGFGKKFYYKATVMFECDKGFYLDGSDTIVCDSNSTWDPPVPKCLKVGGGGGGDCGLPPDVPNAQPALEGRTSFPEDTVITYKCEESFVKIPGEKDSVICLKGSQWSDIEEFCNRSCEVPTRLNSASLKQPYITQNYFPVGTVVEYECRPGYRREPSLSPKLTCLQNLKWSTAVEFCKKKSCPNPGEIRNGQIDVPGGILFGATISFSCNTGYKLFGSTSSFCLISGSSVQWSDPLPECREIYCPAPPQIDNGIIQGERDHYGYRQSVTYACNKGFTMIGEHSIYCTVNNDEGEWSGPPPECRGKSLTSKVPPTVQKPTTVNVPTTEVSPTSQKTTTKTTTPNAQATRSTPVSRTTKHFHETTPNKGSGTTSGTT
